Measured values reported in patent US20220195023A1 (ATRECA, published 2022).
Residue numbers refer to the chain shown, from its start.

B1: AB-007067 (antibody, V domains shown)
VH: QMQLVESGGGVVQPGRSLRLSCTASGFTFSTYAMHWVRQSPGQGLQWVAVISYHSTNKYYEDSVRGRFTISRDNSKNTLYLQMNSLRAEDTAVYYCARDGYSSSFFDFWGQGTLVTVSS
VL: DIQMTQSPSTLSASVGDRVAITCRASQSISRWLAWYQQQPGKAPKLLMSSASVLESGVPSRFSGSGSGTEFTLTISSLQPDDFATYYCQHYNSYFVTFGQGTKVEIK
B2: AB-007071 (antibody, V domains shown)
VH: B1 VH
VL: B1 VL with S50G, V53S
B3: AB-007072 (antibody, V domains shown)
VH: B1 VH
VL: B1 VL with S50G, V53N
B4: AB-007068 (antibody, V domains shown)
VH: B1 VH
VL: B1 VL with S50L
B5: AB-007074 (antibody, V domains shown)
VH: B1 VH with T23A, S40A
VL: B1 VL with A20T, S50G, F95Y
B6: AB-007070 (antibody, V domains shown)
VH: B1 VH
VL: B1 VL with S50A
B7: AB-007073 (antibody, V domains shown)
VH: B1 VH
VL: B1 VL with S50G, Y94H
B8: AB-007069 (antibody, V domains shown)
VH: B1 VH
VL: B1 VL with S50V

Target: T1, CSP Protein (Plasmodium falciparum, UniProt Q7K740 19-374)
T1 construct: also called circumsporozoite protein; complete CSP protein
Test: SPR, antibody on chip;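 note: antibodies immobilized on a Carterra chip, directly or via anti-human Fc capture, at two spots each, with CSP flowed over at 4-5 concentrations peaking at 0.5-8 µg/mL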
Procedure: For SPR, each antibody was either directly coupled to a Carterra Chip or coupled using a goat anti-human Fc antibody. The uncoupled antibodies were washed off and various concentration gradients of the targets were flowed over the antibodies, where the highest concentration of each target was in the range 0.5-8 μg/mL. Each antibody was immobilized in two different locations on the chip to allow for duplicate measurements. The affinity for each antibody-target combination was determined using 4-5 target concentrations in Mathematica software. If variation between the two duplicates was >3-fold, the antibody-target measurement was repeated.

T1 sequence (Q7K740 19-374 limits assumed): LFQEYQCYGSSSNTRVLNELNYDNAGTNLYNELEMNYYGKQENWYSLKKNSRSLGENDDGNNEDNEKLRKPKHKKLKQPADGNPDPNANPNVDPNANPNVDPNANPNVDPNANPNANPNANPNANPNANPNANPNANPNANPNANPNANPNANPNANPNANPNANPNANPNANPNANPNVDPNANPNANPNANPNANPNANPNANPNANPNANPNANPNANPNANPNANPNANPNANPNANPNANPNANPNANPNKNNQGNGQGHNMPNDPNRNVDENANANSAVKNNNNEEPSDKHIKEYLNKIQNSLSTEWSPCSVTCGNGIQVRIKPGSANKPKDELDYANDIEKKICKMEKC

Binder	Kd
B1	0.0877 nM
B2	0.0683 nM
B3	0.194 nM
B4	0.152 nM
B5	0.0415 nM
B6	0.177 nM
B7	0.0816 nM
B8	0.174 nM
